From patent US20220267441A1 (VOR BIOPHARMA, published 2022)
Read-outs that look alike come from different tables or passages of the source.

What was measured:
[1] = target: T1, cynomolgus CD45 on live cells (primary cynomolgus PBMCs) (cynomolgus monkey); experiment: flow cytometry on PBMCs; cyno EC50 against human EC50
T1 construct: Endogenous CD45 on PBMCs; also called cyno CD45; Cyno PBMC
T1 chain: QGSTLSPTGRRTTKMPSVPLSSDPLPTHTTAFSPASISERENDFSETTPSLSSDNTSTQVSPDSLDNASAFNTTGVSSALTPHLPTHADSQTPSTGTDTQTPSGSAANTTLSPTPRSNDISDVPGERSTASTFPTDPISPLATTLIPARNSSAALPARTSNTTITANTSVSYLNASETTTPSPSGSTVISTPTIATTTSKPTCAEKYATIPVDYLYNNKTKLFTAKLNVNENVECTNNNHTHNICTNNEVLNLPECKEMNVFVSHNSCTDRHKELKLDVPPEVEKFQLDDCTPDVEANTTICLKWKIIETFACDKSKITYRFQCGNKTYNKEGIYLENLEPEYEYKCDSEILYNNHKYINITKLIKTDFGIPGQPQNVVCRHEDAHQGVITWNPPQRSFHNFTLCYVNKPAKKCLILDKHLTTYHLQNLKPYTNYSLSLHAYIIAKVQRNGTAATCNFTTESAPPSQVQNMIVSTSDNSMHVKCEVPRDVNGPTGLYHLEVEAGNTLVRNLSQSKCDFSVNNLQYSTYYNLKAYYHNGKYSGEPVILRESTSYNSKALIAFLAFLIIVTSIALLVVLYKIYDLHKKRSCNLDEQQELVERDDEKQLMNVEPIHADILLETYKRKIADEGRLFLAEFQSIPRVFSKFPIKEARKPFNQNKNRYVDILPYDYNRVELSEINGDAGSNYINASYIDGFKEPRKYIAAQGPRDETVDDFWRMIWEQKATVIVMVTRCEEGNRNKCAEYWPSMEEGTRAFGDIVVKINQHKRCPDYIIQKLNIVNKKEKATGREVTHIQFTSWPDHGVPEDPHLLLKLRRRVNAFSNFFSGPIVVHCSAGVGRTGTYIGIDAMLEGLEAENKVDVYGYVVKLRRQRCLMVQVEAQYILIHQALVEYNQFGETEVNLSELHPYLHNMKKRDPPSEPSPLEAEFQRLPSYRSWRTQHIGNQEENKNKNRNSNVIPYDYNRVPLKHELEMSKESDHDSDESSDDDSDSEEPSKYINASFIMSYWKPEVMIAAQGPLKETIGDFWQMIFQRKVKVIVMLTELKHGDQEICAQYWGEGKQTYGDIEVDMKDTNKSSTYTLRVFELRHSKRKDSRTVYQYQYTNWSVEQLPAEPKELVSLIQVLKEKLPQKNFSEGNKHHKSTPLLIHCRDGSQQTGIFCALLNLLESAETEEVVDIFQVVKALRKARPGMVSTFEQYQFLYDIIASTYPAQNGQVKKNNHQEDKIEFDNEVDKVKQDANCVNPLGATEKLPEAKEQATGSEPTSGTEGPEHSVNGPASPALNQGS

[2] = target: T2, human CD45 on live cells (REH-1 cells, primary human PBMCs) (human, UniProt P08575 26-1306); experiment: flow cytometry on human PBMCs, overnight 37 C, AF488 anti-human IgG
T2 construct: Endogenous CD45
T2 sequence: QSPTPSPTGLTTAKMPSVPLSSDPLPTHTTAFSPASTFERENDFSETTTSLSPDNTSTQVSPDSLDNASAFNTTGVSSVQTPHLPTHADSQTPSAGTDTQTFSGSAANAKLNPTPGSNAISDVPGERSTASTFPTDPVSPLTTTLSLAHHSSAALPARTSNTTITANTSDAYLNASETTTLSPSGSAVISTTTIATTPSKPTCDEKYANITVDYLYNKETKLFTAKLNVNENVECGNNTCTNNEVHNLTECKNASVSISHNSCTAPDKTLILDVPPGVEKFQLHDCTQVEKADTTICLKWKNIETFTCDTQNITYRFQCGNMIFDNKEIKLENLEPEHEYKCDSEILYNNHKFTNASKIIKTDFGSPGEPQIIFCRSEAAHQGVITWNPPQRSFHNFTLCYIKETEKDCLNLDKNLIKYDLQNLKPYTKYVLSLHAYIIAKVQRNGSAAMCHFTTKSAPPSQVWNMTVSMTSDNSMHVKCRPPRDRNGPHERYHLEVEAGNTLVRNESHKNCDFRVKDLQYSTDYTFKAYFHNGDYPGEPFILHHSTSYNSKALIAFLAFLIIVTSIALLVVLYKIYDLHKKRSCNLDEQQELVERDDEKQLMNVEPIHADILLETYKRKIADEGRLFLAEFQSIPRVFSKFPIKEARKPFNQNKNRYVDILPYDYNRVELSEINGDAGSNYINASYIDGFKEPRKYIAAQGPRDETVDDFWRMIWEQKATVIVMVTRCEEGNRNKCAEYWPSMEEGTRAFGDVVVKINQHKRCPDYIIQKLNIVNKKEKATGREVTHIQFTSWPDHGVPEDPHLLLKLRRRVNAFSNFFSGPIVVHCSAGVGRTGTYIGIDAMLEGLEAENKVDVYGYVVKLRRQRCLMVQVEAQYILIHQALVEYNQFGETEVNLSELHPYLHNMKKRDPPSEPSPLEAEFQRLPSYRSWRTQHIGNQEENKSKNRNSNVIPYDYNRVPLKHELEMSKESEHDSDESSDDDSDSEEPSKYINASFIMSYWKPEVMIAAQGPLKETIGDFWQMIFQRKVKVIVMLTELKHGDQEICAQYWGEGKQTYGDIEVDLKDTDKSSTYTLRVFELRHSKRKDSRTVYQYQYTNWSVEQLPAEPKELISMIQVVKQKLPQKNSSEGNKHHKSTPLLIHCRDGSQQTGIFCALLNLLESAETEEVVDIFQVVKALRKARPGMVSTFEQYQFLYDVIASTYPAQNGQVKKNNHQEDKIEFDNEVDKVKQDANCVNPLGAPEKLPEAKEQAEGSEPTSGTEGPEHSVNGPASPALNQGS

[3] = target: T1, cynomolgus CD45 on live cells (primary …); experiment: flow cytometry on cynomolgus PBMCs, overnight 37 C, AF488 anti-human IgG
[4] = target: T3, purified human CD45 ectodomain (human CD45RABC antigen) (human, UniProt P08575 26-577); experiment: BLI (Octet Red96), IgG on anti-human Fc sensor, 100 nM CD45 ectodomain, 1:1 fit
T3 construct: also called hCD45
T3 sequence: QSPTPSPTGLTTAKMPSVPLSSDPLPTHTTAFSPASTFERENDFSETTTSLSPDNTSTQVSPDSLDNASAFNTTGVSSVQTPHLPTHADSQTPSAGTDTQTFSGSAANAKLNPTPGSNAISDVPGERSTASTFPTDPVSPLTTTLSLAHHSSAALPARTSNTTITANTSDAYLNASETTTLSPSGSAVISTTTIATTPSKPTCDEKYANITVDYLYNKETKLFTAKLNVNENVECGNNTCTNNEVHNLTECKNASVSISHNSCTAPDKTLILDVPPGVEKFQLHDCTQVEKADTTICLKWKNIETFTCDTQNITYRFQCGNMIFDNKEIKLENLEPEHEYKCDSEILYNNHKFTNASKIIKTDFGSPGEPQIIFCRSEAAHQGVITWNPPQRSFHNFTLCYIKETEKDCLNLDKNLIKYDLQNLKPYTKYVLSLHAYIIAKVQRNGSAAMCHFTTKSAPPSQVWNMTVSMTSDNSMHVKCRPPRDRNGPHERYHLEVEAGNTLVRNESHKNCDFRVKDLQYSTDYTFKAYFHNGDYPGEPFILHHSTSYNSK

[5] = target: T2, human CD45 on live cells (REH-1 cells, …); experiment: flow cytometry on REH-1 cells, overnight 37 C, AF488 anti-human IgG
[6] = target: T2, human CD45 on live cells (REH-1 cells, …); experiment: flow cytometry on human PBMCs, overnight 37 C, AF488 anti-human IgG; remark: listed apart in the source
[7] = target: T1, cynomolgus CD45 on live cells (primary …); experiment: flow cytometry on cynomolgus PBMCs, overnight 37 C, AF488 anti-human IgG

B1: AbB_D265C_LALA_H435A (antibody, human IgG1, kappa, L234A L235A, V domains shown)
VH: EVQLVESGGGLVQPGGSLRLSCAASGFTFTNFWMAWIRQAPGKGLEWVASISSSGGSIYYPDSVKDRFTISRDNSKNTLYLQMNSLRAEDTAVYYCVKFHHYSGGGDAWGQGTLVTVSS
VL: DIQMTQSPSSLSASVGDRVTITCKASQNINKYLDWYQQKPGKAPKLLIHYTNNLHTGIPSRFSGSGSGTDYTLTISSLQPEDFATYYCLQHSSRWTFGGGTKVEIKR
notes: also called Fc variant of AbB
In the case of B1, the “Cyno/Human Ratio (EC50)” value [1] is reported as 1.36 ratio, the EC50 [2] is reported as 2.2 nM and the EC50 [3] is reported as 2.9 nM.

B2: AbC_D265C_LALA_H435A (antibody, human IgG1, kappa, L234A L235A, V domains shown)
VH: EVQLVESGGGLVQPGGSLRLSCAASGFTFNNYWMTWVRQAPGKGLEWVSSISSSGGSIYYPDSVKDRFTISRDNAKNSLYLQMNSLRAEDMAVYYCARLYYYDGGGDAWGQGTLVTVSS
VL: GIQMTQSPSSLSASVGDRVTITCKASQDINKYLDWYQQKPGKAPKLLIYNTNNLHTGIPSRFSGSGSGTDYTLTISSLQPEDFATYYCLQHISRWTFGGGTKVEIKR
notes: also called Fc variant of AbC
B2 was tested, and the “Cyno/Human Ratio (EC50)” value [1] was 1.49 ratio, the EC50 [2] was 2.2 nM and the EC50 [3] was 3.3 nM.

B3: Antibody 1 (Ab1) (antibody, V domains shown)
VH: QVQLVESGGGLVKPGGSLRLSCAASGFTFSSYSMNWVRQAPGKGLEWVSYISSSSSTIYYADSVKGRFTISRDNAKNSLYLQMNSLRAEDTAVYYCARGGQYYYDSSRYGEVAFDIWGQGTMVTVSS
VL: not shown
notes: Fully human IgG from yeast display; also called Parent 1; parent clone Ab1
In the case of B3, the koff [4] is reported as 0.0499 s⁻¹ and the kon [4] is reported as 458000 M⁻¹ s⁻¹.

B4: Ab5 (D265C LALA H435A) (antibody, human IgG1, kappa, L234A L235A, V domains shown)
VH: EVQLVESGGGLVQPGGSLRLSCAASGFTFEAYSMNWVRQAPGKGLEWVSYISLSGATIHYADSVKGRFTISRDNAKNSLYLQMNSLRAEDTAVYYCARGGQYYYTSSDYGEVAFDIWGQGTMVTVSS
VL: DIVMTQSPLSLPVTPGEPASISCRSSQSLVSSGYNYLDWYLQKPGQSPQLLIYFGSSRASGVPDRFSGSGSGTDFTLKISRVEAEDVGVYYCMQRRRTPWSFGGGTKVEIKR
In the case of B4, the EC50 [5] is reported as 0.3 nM, the EC50 [6] is reported as 1.4 nM and the EC50 [7] is reported as 1.3 nM.

B5: Ab7 (D265C LALA H435A) (antibody, human IgG1, kappa, L234A L235A, V domains shown)
VH: QVQLVESGGGLVKPGGSLRLSCAASGFTFGGYSMNWVRQAPGKGLEWVSYISISGATITYADSVKGRFTISRDNAKNSLYLQMNSLRAEDTAVYYCARGGQYYYDSSDYGEVAFDIWGQGTMVTVSS
VL: DIVMTQSPLSLPVTPGEPASISCRSSQSLVSSGYNYLDWYLQKPGQSPQLLIYFGSSRASGVPDRFSGSGSGTDFTLKISRVEAEDVGVYYCMQRRRTPPFTFGGGTKVEIKR
With B5 the EC50 [5] was 0.2 nM, the EC50 [6] was 1 nM and the EC50 [7] was 1.3 nM.
